Where two headings read alike, the source gives them in different places. Square brackets hold non-standard residues; d marks the D form. Ends that are not written are not given here. Arg(Me2a) = CN(C)C(=N)NCCC[C@H](N)C(=O)O; pT = C[C@@H](OP(=O)(O)O)[C@H](N)C(=O)O; Me2a = not defined here
T1: CaBdf1 BD1 (Candida albicans, UniProt Q5A4W8)
T1 construct: made in house; host or cells: E. coli BL21(DE3)
T1 sequence (Q5A4W8 whole entry, looked up): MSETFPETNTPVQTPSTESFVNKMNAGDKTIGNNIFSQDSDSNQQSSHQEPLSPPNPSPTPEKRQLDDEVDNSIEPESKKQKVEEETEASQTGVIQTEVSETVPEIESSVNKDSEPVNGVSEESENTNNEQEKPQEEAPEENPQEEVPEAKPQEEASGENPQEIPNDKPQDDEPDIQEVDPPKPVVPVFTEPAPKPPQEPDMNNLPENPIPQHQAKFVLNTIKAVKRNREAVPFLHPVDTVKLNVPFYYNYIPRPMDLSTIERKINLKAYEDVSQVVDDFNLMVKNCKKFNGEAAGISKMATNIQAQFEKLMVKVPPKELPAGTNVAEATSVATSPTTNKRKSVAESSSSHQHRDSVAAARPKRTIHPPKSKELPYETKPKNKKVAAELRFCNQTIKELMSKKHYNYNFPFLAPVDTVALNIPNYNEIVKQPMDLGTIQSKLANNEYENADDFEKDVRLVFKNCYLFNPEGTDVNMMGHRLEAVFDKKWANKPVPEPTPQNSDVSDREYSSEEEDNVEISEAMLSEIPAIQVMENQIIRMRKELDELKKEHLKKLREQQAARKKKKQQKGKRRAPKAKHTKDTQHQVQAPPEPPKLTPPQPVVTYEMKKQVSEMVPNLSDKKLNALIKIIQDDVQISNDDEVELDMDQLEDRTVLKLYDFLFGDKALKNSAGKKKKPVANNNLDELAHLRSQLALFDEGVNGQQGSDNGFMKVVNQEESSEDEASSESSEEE

T2: CaBdf1 BD2 (Candida albicans, UniProt Q5A4W8)
T2 construct: made in house; host or cells: E. coli BL21(DE3)
T2 sequence (Q5A4W8 whole entry, looked up): T1 sequence (Q5A4W8 whole entry, looked up)

T3: CaBdf1 BD2 (GST-tagged, wild-type) (Candida albicans (strain SC5314 / ATCC …, UniProt Q5A4W8))
T3 chain: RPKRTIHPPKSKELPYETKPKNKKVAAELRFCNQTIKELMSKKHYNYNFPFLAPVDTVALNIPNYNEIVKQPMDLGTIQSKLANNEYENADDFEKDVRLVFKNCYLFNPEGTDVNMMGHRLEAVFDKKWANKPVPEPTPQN

T4: CaBdf1 BD1 (GST-tagged, wild-type) (Candida albicans (strain SC5314 / ATCC …, UniProt Q5A4W8))
T4 chain: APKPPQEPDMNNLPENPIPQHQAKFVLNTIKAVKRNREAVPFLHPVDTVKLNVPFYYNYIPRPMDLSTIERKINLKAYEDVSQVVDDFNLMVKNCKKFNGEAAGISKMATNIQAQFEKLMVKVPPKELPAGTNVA


Legend:
CaBdf1 BD1 = target: T1, CaBdf1 BD1; assay type: binding; conditions: wild-type BD1; for CaBdf1 BD1 Normalized (0 to 100%) WT: normalized array signal; for CaBdf1 BD1 Raw data WT: peptide array signal
Method: (§1) In short, arrays were blocked and incubated with 1 μM of purified CaBdf1 BD1 or BD2. Arrays were incubated with recombinant BDs for 2 h at 4 °C in binding buffer (Tris-HCl 50 mM pH 7.4, NP-40 0.1%, NaCl 150 mM, glycerol 10%). […] Assays were performed in duplicate.

CaBdf1 BD2 = target: T2, CaBdf1 BD2; assay type: binding; conditions: wild-type BD2; for CaBdf1 BD2 Normalized (0 to 100%) WT: normalized array signal; for CaBdf1 BD2 Raw data WT: peptide array signal
Method: as §1

CaBdf1 BD1 Y248F = target: T5, CaBdf1 BD1 Y248F (Candida albicans, UniProt Q5A4W8, Y248F); test: Histone peptide microarray binding, YF mutant;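 for CaBdf1 BD1 Normalized (0 to 100%) YF mutant: normalized to spotted c-myc peptide positive control signal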; set-up: species or system C. albicans; conditions: YF mutant BD1; for CaBdf1 BD1 Normalized (0 to 100%) YF mutant: normalized array signal; for CaBdf1 BD1 Raw data YF mutant: peptide array signal
T5 construct: made in house; host or cells: E. coli BL21(DE3), inferred from the wild-type GST construct
Method: as §1, with “duplicate. Images were acquired on a Bio-Rad ChemiDoc XRS Imaging machine and data were quantified using the array analyser software provided by Active Motif.” for “duplicate.”

CaBdf1 BD2 Y425F = target: T6, CaBdf1 BD2 Y425F (Candida albicans, UniProt Q5A4W8, Y425F); test: Histone peptide microarray binding, YF mutant;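 for CaBdf1 BD2 Normalized (0 to 100%) YF mutant: normalized to spotted c-myc peptide positive control signal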; set-up: species or system C. albicans; conditions: YF mutant BD2; for CaBdf1 BD2 Normalized (0 to 100%) YF mutant: normalized array signal; for CaBdf1 BD2 Raw data YF mutant: peptide array signal
T6 construct: made in house; host or cells: E. coli BL21(DE3), inferred from the wild-type GST construct
Method: as §1, with “duplicate. Images were acquired on a Bio-Rad ChemiDoc XRS Imaging machine and data were quantified using the array analyser software provided by Active Motif.” for “duplicate.”

[1] = target: T3, CaBdf1 BD2 (GST-tagged, wild-type); test: histone peptide array (Active Motif MODified), 1 uM GST-tagged bromodomain, anti-GST detection, normalized mean intensity
[2] = target: T4, CaBdf1 BD1 (GST-tagged, wild-type); test: as above
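Throughout, for CaBdf1 BD1 Normalized (0 to 100%) WT: normalized to spotted c-myc peptide positive control signal.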
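Throughout, for CaBdf1 BD2 Normalized (0 to 100%) WT: normalized to spotted c-myc peptide positive control signal.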

T6 sequence (Q5A4W8 361-501 Y425F): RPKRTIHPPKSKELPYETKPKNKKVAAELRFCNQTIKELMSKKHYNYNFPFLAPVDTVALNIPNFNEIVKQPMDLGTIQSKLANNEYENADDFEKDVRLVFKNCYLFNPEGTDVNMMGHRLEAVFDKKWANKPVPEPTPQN
T5 sequence (Q5A4W8 193-327 Y248F): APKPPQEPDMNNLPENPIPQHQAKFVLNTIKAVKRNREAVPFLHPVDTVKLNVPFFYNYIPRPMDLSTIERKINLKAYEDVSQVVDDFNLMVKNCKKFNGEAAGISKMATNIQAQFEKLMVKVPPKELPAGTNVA

Molecule | CaBdf1 BD1 Normalized (0 to 100%) WT (CaBdf1 BD1) [%] | CaBdf1 BD1 Raw data WT (CaBdf1 BD1; first of two raw-data columns) | CaBdf1 BD1 Raw data WT (CaBdf1 BD1) | CaBdf1 BD2 Normalized (0 to 100%) WT (CaBdf1 BD2) [%] | CaBdf1 BD2 Raw data WT (CaBdf1 BD2) | CaBdf1 BD1 Normalized (0 to 100%) YF mutant (CaBdf1 BD1 Y248F) [%] | CaBdf1 BD1 Raw data YF mutant (CaBdf1 BD1 Y248F; first of two raw-data columns) | CaBdf1 BD1 Raw data YF mutant (CaBdf1 BD1 Y248F) | CaBdf1 BD2 Normalized (0 to 100%) YF mutant (CaBdf1 BD2 Y425F) [%] | CaBdf1 BD2 Raw data YF mutant (CaBdf1 BD2 Y425F) | CaBdf1 BD2 Raw data WT (CaBdf1 BD2; first of two raw-data columns) | CaBdf1 BD2 Raw data YF mutant (CaBdf1 BD2 Y425F; first of two raw-data columns) | binding score [1] | binding score [2]
A Rme2s T Kac Q T A Rme2s K S T G G K A P R K Q | 0.363 | 0.003741 | 0.005345 | 0.518 | 0.01235 | 0.485 | 0.004801 | 0.003086 | 0.293 | 0.003398 |  |  |  | 
A Rme2s T Kac Q T A R Kme3 S T G G K A P R K Q | 0.616 | 0.005879 | 0.006948 | 0.259 | 0.0006863 | 0.727 | 0.007202 | 0.004458 | 0.293 |  | 0.01579 |  |  | 
A Rme2s T Kme1 Q T A Rme2s K S T G G K A P R K Q | 0.326 | 0.004276 | 0.004276 | 0.444 | 0.01304 | 0.45 | 0.004458 | 0.01166 | 0.147 | 0.001456 | 0.006863 | 0.001456 |  | 
A Rme2s T Kme3 Q T A Rme2s K S T G G K A P R K Q | 0.29 | 0.003207 | 0.00481 | 0.444 | 0.01167 | 0.346 | 0.003429 | 0.004115 | 0.244 | 0.003398 | 0.008236 | 0.002427 |  | 
A Rme2s T Kme2 Q T A R Kme3 S T G G K A P R K Q | 0.145 | 0.004276 | 0.001603 | 0.444 | 0.002745 | 0.312 | 0.003086 | 0.002058 | 0.44 | 0.002427 | 0.01716 | 0.004369 |  | 
A Rme2a T Kme3 Q T A R Kac S T G G K A P R K Q | 3.44 | 0.01924 | 0.03528 | 0.518 | 0.0151 | 0.554 | 0.005487 | 0.004801 | 0.244 | 0.002427 | 0.006177 | 0.002427 |  | 
A Rme2a T Kme3 Q T A Rme2a K S T G G K A P R K Q | 0.363 | 0.004276 | 0.00481 | 0.444 |  | 0.658 | 0.006516 | 0.004801 | 0.293 | 0.002427 | 0.01098 |  |  | 
A Rme2s T Kme1 Q T A R Kme1 S T G G K A P R K Q | 0.29 | 0.003741 | 0.004276 | 0.518 | 0.005491 | 0.658 | 0.006516 | 0.005144 | 0.342 |  | 0.01579 | 0.003398 |  | 
A Rme2s T Kme2 Q T A Rme2s K S T G G K A P R K Q | 0.181 | 0.002672 | 0.003741 | 0.629 | 0.01579 | 0.624 | 0.006173 | 0.003086 | 0.244 | 0.004854 | 0.00755 | 0.002427 |  | 
A Rme2a T Kme2 Q T A Rme2a K S T G G K A P R K Q | 0.508 | 0.007483 | 0.003741 | 0.444 | 0.01098 | 0.727 | 0.007202 | 0.003086 | 0.293 | 0.002427 |  |  |  | 
A Rme2a T Kme2 Q T A R Kme2 S T G G K A P R K Q | 0.399 | 0.00481 | 0.00481 | 0.222 | 0.0006863 | 0.727 | 0.007202 | 0.002401 | 0.0977 | 0.002427 | 0.0151 | 0.0009709 |  | 
A[Arg(Me2a)]TKQTARKSTGGKAPRKQ |  |  |  |  |  |  |  |  |  |  |  |  | 0.00296 | 0.000363
AR(Me2s)TK(Me3)QTAR(Me2a)K(Ac)STGGKAPRKQ (reading uncertain) |  |  |  |  |  |  |  |  |  |  |  |  | 0.0037 | 0.0406
AR(Me2a)[pT]K(Me)QTARKSTGGKAPRKQ (reading uncertain) |  |  |  |  |  |  |  |  |  |  |  |  | 0.00037 | 0.00471
